Assay results as given in PMC2728795.

Molecular target: F-actin (freshly polymerized actin) (UniProt P68135)
Assay: co-sedimentation

Substance: GST(541–605,Δ25)PRG (from UniProt O15085 541-605) (domain or fragment)
- percent bound at 5 µM F-actin: 10%
